Assay results: patent US12649783B2, “Anti-MCT1 antibodies and uses thereof” (IMMUNEXT INC., priority 2018, dated 2026)

Assays:
Tr1 cells = assay: ex vivo Tr1 survival; assay type: cell-based, human
Procedure: Humanized NSG mice (treated with anti-MCT1) were sacrificed on d32 or other day specified, single cells suspensions were prepared from spleens, followed by bead-based enrichment of hCD3+ cells. Isolated cells were plated with the analytes (see above table) to access Tr1 survival: […]

MCT1 = target: T1, MCT1 (Homo sapiens, UniProt P53985); assay: bromopyruvate toxicity assay (ATPlite); assay type: cell-based
T1 construct: HEK-293 WT cells only express MCT1/CD147 and no other MCTs as measured by RT-PCR; endogenous in cells; host or cells: HEK293T
T1 sequence (P53985 1-500): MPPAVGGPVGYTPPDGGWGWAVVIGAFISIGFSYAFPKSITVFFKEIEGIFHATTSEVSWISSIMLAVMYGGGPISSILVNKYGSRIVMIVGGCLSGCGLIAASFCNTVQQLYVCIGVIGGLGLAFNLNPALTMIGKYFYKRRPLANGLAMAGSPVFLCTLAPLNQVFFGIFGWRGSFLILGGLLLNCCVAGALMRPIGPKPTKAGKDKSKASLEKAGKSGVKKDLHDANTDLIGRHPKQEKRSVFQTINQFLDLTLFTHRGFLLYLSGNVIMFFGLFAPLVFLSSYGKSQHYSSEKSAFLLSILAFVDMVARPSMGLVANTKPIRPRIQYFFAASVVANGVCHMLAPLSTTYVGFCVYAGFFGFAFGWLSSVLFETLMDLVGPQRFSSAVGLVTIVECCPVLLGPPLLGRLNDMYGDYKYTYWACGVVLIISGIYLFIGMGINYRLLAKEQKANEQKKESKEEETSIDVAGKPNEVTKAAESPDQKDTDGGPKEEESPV
Procedure: Inhibition of bromopyruvate toxicity. Since MCT1 is the sole transporter necessary for the in vitro efficacy of the anti-cancer toxin bromopyruvate (Reference 66), a second cell-based functional assay was developed to measure the in vitro killing of cells using this toxin at a concentration of 150 μM.
HEK293T cells are pre-treated with anti-MCT1 antibody or small molecular MCT1 inhibitor at 37° C. for 1 hour. Cells are then incubated with a cytotoxic reagent 3-bromopyruvate (3-BrPy) at concentrations that rand from 25 to 500 μM for 2 to 6 hours. ATP from dying cells will be quantified using a commercial viability kit (ATPlite, PerkinElmer) in a 96-well plate and viability measured using luminescence. Reduction of ATP production indicates functionality of the antibody. A positive control antibody is the mouse or chimeric antibody before humanization. A negative control cell line is MCT1/CD147 double knockout 293T cells. Using this assay functional, i.e., antagonistic anti-MCT1 antibodies may be identified.

T cell proliferation = T cell proliferation assay (CD3/CD28 stimulated); assay type: cell-based, human; conditions: CD3/CD28 stimulated cultures; read-out: EC50 inhibition of T cell proliferation
Procedure: MCT1, MCT2, MCT4, and BSG (CD147) expression were measured in unstimulated and stimulated leukocytes from two different donors. For the “stimulated” condition, cells were CD3/CD28 activated for 3 days. Stimulated cells were tested for inhibition of proliferation by AZ3965.
Human T cell proliferation.
(§1) Inhibition of T cell proliferation, inflammatory cytokine production, and allogeneic activation. […] An anti-MCT1 antibody or antibody fragment of the invention may also be tested for its ability to inhibit the production of inflammatory cytokines, relative to controls, in stimulated T cells on day 3 post-stimulation. MCT1 Ab1As with CD3/CD28 activation, MCT1 Ab1 inhibited allogeneic activation by 50-60% in a human mixed lymphocyte reaction (see, e.g., FIG. 17).

[1] = target: T2, MCT1 transport of lactate (Homo sapiens, UniProt P53985); assay: lactate FLIPR assay; assay type: cell-based; conditions: activated T cells; FLIPR Tetra, BCECF; read-out: Kd for block of lactate transport
T2 construct: endogenous in cells
T2 sequence (P53985 1-500): T1 sequence (P53985 1-500)
Text: Effects on lactate transport.
Inhibition of lactate transport.

[2] = system: allogeneic activation / T cell proliferation; assay: human mixed lymphocyte reaction (MLR); assay type: cell-based
Text: Human mixed lymphocyte reaction (MLR).
as §1

[3] = target: T3, MCT1 on the surface of human PBMCs (Homo sapiens, UniProt P53985); assay: flow cytometry binding to PBMCs, human
T3 construct: endogenous in cells; host or cells: human PBMCs (unstimulated and stimulated)
T3 sequence (P53985 1-500): T1 sequence (P53985 1-500)
Text: (§2) FIG. 12A-D show the cross-reactivity of MCT1 Ab1 as assessed via flow cytometry measurements of binding to MCT1 on the surface of different species' PBMCs.
(§3) Binding affinity and MCT1 cross-reactivity. […] MCT1 Ab1 is also highly cross-reactive with cynomolgus (cyno) and rabbit MCT1, but not with rodent MCT1 (FIG. 12A-D).

cynomolgus MCT1 = assay: flow cytometry binding to PBMCs, cynomolgus
Text: as §2, §3

rabbit MCT1 = assay: flow cytometry binding to PBMCs, rabbit
Text: as §2, §3

rat MCT1 = target: T4, rat MCT1 (Rattus norvegicus, UniProt P53987); assay: flow cytometry binding to PBMCs, rat
T4 construct: endogenous in cells; host or cells: rat PBMCs
T4 sequence (P53987 1-494): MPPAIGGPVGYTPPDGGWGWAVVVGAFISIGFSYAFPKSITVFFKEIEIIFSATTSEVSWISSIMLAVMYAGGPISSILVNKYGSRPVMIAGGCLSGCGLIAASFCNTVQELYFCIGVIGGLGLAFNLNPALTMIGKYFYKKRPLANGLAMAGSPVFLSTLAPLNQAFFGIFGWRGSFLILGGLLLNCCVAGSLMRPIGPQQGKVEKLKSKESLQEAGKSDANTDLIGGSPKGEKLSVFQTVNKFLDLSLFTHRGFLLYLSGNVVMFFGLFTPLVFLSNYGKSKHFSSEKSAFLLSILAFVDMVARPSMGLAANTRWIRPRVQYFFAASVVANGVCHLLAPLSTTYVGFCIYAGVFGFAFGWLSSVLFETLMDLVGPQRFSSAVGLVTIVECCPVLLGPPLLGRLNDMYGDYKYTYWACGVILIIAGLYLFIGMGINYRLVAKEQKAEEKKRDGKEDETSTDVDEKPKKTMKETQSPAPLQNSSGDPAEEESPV
Text: as §2, §3

MCT1 on T cells = target: T5, MCT1 on T cells (Homo sapiens, UniProt P53985); assay: staining of naive and activated T cells; assay type: binding
T5 construct: endogenous in cells
T5 sequence (P53985 1-500): T1 sequence (P53985 1-500)
Text: The only staining in FIG. 13A corresponds to nucleus staining, confirming the presence of the naïve T cells.
MCT1 Ab1 binding to activated T cells. […] This binding confirms the expression data presented in FIG. 2 and confirms the prediction based on mRNA analysis.

human T cells = assay: metabolomics of treated T cells; assay type: cell-based; conditions: preliminary
[4] = system: human RBC lactate transport; assay: FLIPR lactate transport in purified human RBCs; assay type: cell-based; conditions: 10 mM lactate
Procedure: MCT1 Ab1 and AZ3965 were used to inhibit MCT1 lactate transport in purified human RBCs using FLIPR based transport assays (REF. 1, 2) in the presence of 10 mM lactate. The levels of lactate transport were compared to a no lactate control condition and a no inhibitor condition in the presence of lactate.

xeno-GVHD = assay: xeno-GvHD model with anti-MCT1 antibodies (human PBMC into NSG mice); assay type: in vivo, mouse
Procedure: In this model of GvHD animals male NSG mice are treated with sub-lethal irradiation (250 rad), and afterward these mice receive 2.5×10^6 of fresh human PBMC (day 0). First dose of anti-human MCT1 is combined with cells and injected i.v. The follow up treatment schedule is weekly (day 7, 14 and 21, IP).
For re-challenge experiments previously treated with anti-MCT1 (days 0, 7, 14, 21) NSG mice receive a second dose of 2.5×10^6 of previously frozen human PBMC of the same donor (day 42). Survival and weight loss of these mice is monitored with no additional antibody treatments and compared to a new cohort of NSG mice receiving same donor PBMCs.
100 ul of total blood is used for analysis: blood was stained using a Stain-1 wash protocol to allow absolute cell count with Ab panel below followed by FACS lysis buffer 1× (BD Bioscience, #349202); whole blood was incubated with a 10× antibody (shown below) and after 30 min, the blood was lysed in a large volume of 1× lysis buffer (at least 6 times) following manufacturer instructions; or blood was first lysed with ACK (10 min), washed in PBS and stained with antibody mix, exactly as described in the table below.

[5] = repeated dosing safety in cynomolgus monkeys; assay type: in vivo, cynomolgus monkey
Text: In order to further corroborate the safety and efficacy of anti-MCT1 antibodies for human therapy we administered dosages of 50 mpk of anti-human MCT1 antibodies to cynomolgus monkeys. As disclosed in this example and corroborated by the figure referenced herein no toxicity was observed after 30 days.
As shown in FIG. 23 cynomolgus red blood cells (RBCs) express high levels of MCT1. Based thereon we tested the effects of antagonistic anti-MCT1 antibodies in cyno monkeys and in particular looked at any effects on RBCs after anti-MCT1 antibody dosing. Also, we determined whether cynos could tolerate a therapeutic effective dosage of the antibody.

PK in cynos = assay type: in vivo, cynomolgus monkey; conditions: preliminary PK data
CD4+ and CD8+ T cells = assay: proliferation of CD4+ and CD8+ T cells; assay type: cell-based; conditions: different antibody concentrations

Molecule: IL-15: Recombinant Human IL-15 (carrier-free), Biolegend 570304
- ex vivo Tr1 survival (Tr1 cells): increased ex vivo Tr1 survival in a dose-dependent manner

B1: LM186: chicken anti-human MCT1 antibody; HC/LC SEQ ID NO: 184/189 (antibody)
heavy: AVTLDESGGGLQTPGGGLSLVCKASGFSFSSRGMFWVRQAPGKGLEYVAGIDNDGGYPNYGSAVKGRATISRDNRQSTVRLQLNNLRADDTGTYYCAKGAYGGGWYAASSIDAWGHGTEVIVSS
light: ALTQPSSVSANPGEAVKITCSGGVGQWYGWFQQKAPGSAPVTVIHDNTNRPSDIPSRFSGSKSGSTGTLTITGVQAEDEAVYFCANTYSDGNDAPFGAGTTLTVL
modifications: HC Protein; LC Protein
- block of human MCT1 function (MCT1): block human MCT1 function

B2: MCT1 Ab1: rat anti-human MCT1 monoclonal antibody (rat/human chimera); VH/VL SEQ ID NO: 2/3 (antibody, V domains shown)
VH: QVQLKATGPGLVQPTQTLSITCTVSGFSLTNYHLQWVRQTPGKGLEWMGFIRSSGNTEYNSEFKSRLSISRDTSKNQVFLKMNSLKTDDTGVYYCARNSWYHGTYYSPGYYVMDAWGQGASVTVSS
VL: NIHLTQSPSLLSASVGDRVTLSCKGSQNINNYLAWFQQKFGETPKLLIYNRHNLQTGIPSRFSGSGSGTDYTLTINSLQPEDVATYFCYQYSDGYTFGAGTKLELK
modifications: MCT1 Ab1 (INX310) VH; MCT1 Ab1 (INX310) VL
- EC50 (T cell proliferation): 1.3 nM
- Kd [1]: 7.6 nM
- inhibition of allogeneic activation [2]: 50-60%
- binding to MCT1 on PBMCs [3]: binds to MCT1 on the surface of human PBMCs
- binding to MCT1 on PBMCs (cynomolgus MCT1): binds to cynomolgus MCT1
- binding to MCT1 on PBMCs (rabbit MCT1): binds to rabbit MCT1
- binding to MCT1 on PBMCs (rat MCT1): does not bind to rat MCT1
- staining of activated T cells (MCT1 on T cells; CD3/CD28 activated cells, day 3): stains the surface of CD3/CD28 activated cells on day 3
- staining of naive T cells (MCT1 on T cells; naïve cells): does not stain naïve cells
- Kd (MCT1; bromopyruvate 150 μM, ATPlite, read-out: Kd for inhibition of bromopyruvate toxicity (protection from cell death)): 1.2 nM
- metabolomics findings in treated T cells (human T cells): improved generation of ATP and NADH, along with increased oxidative metabolism and viability
- lactate transport in human RBCs [4]: unaffected
- number of CD3+, CD4+ and CD8+ effector T cells (xeno-GVHD; compared to NSG mice treated with control antibody): significant decrease in the number of CD3^+, CD4^+ and CD8^+ effector T cells
- Tr1 cells (xeno-GVHD; compared to control antibody): increases in Tr1 cells
- MABEL in xeno-GVHD (xeno-GVHD; mouse, in vivo): ~1 mpk
- survival, long-term protection and tolerance (xeno-GVHD; re-challenge at day 42 with PBMC of the same donor): increased survival, long-term protection and tolerance induction
- histological findings (heart, muscle, testis and eye, H & E) ([5]; 4 weekly doses at 50 mpk): no adverse histological findings
- in-life toxicity ([5]; 30 days, 4 weekly doses at 50 mpk): no significant in-life toxicity
- RBC mass after dosing ([5]; cynos, 50 mpk): initial reduction of RBC mass after dosing this resolves after a short time
- tolerability of repeated dosing ([5]; cynos, 50 mpk): tolerate repeated dosing
- dose rate at which the RBC sink is saturated (PK in cynos): ≥ 5 mpk
- proliferation of CD4+ and CD8+ T cells (CD4+ and CD8+ T cells): inhibited the proliferation of CD4^+ and CD8^+ T cells

B3: LM183: chicken anti-human MCT1 antibody; HC/LC SEQ ID NO: 164/169 (antibody)
heavy: AVTLDESGGGLQTPGGTLSLVCKASGFDFSNYEMLWVRQAPGKGLEYVAGIGDSASYSAYGVAVKGRATISRDNGQSTLRLQLNGLRAEDTGTYYCTKASEGSYWYYEAGGIDTWGHGTEVIVSS
light: ALTQPSSVSANLGGTVKITCSGGGGSYGWYQQKSPGSAPVTVIYDNDKRPSDIPSRFSGSKSGSTATLTITGVRAEDEAVYYCGSAGNSGAFGAGTTLTVL
modifications: HC Protein; LC Protein
- block of human MCT1 function (MCT1): block human MCT1 function

B4: IL-7: Recombinant Human IL-7 (carrier-free), Biolegend 581904 (protein, UniProt P13232 26-177, looked up)
Interleukin-7: DCDIEGKDGKQYESVLMVSIDQLLDSMKEIGSNCLNNEFNFFKRHICDANKEGMFLFRAARKLRQFLKMNSTGDFDLHLLKVSEGTTILLNCTGQVKGRKPAALGEAQPTKSLEENKSLKEQKKLNDLCFLKRLLQEIKTCWNKILMGTKEH
- ex vivo Tr1 survival (Tr1 cells): increased ex vivo Tr1 survival in a dose-dependent manner
